From article PMC9482650, “Quantitative fragmentomics allow affinity mapping of interactomes” (Nature Communications, 2022)

T1: ARHGAP21, Q5T5U3
T1 sequence (Q5T5U3 45-169, limits assumed, looked up): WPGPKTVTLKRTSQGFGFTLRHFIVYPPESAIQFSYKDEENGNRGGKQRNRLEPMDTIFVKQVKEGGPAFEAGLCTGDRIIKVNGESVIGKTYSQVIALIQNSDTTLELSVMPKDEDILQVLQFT

T2: DFNB31_2, Q9P202
T2 sequence (Q9P202 274-371, limits assumed, looked up): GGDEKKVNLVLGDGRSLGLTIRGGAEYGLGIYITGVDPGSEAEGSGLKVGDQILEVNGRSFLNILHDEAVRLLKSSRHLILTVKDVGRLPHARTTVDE

T3: DFNB31_3, Q9P202
T3 sequence (Q9P202 811-907, limits assumed, looked up): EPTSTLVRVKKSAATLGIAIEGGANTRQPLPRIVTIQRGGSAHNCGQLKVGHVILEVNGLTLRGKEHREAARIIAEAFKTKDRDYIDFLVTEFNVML

T4: DLG3_2, Q92796
T4 sequence (Q92796 221-321, limits assumed, looked up): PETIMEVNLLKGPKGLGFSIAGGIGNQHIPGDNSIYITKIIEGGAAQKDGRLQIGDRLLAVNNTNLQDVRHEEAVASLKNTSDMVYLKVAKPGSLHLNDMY

T5: GRIP1_4, Q9Y3R0
T5 sequence (Q9Y3R0 467-571, limits assumed, looked up): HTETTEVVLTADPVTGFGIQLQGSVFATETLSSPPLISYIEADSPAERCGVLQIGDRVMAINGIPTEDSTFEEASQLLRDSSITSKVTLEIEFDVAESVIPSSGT

T6: MPDZ_10, O75970
T6 sequence (O75970 1624-1722, limits assumed, looked up): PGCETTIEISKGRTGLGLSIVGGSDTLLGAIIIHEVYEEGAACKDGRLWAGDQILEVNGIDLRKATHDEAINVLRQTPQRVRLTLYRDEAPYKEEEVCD

T7: MPDZ_12, O75970
T7 sequence (O75970 1857-1958, limits assumed, looked up): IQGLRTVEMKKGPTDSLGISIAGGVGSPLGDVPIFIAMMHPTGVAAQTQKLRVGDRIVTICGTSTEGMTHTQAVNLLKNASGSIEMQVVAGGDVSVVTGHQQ

T8: MPDZ_5, O75970
T8 sequence (O75970 695-796, limits assumed, looked up): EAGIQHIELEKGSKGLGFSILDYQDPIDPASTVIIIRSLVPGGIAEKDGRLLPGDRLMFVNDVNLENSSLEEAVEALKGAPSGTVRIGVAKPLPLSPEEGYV

T9: MPP7, Q5T2T1
T9 sequence (Q5T2T1 134-230, limits assumed, looked up): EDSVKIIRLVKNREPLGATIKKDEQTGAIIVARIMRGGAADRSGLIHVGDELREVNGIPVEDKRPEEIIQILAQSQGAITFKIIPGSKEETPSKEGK

T10: PDZD2_2, O15018
T10 sequence (O15018 329-429, limits assumed, looked up): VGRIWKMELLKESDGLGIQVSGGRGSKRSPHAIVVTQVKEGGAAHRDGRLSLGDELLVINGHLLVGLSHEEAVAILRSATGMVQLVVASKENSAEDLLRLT

T11: PDZRN3_1, Q9UPQ7
T11 sequence (Q9UPQ7 244-349, limits assumed, looked up): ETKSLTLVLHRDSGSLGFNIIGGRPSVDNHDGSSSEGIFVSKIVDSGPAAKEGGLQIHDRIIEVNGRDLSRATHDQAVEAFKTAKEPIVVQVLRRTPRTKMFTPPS

T12: SNTA1, Q13424
T12 sequence (Q13424 82-180, limits assumed, looked up): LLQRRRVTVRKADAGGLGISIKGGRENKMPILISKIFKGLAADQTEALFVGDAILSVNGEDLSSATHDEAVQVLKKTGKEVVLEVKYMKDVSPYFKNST

T13: TX1BP3, O14907
T13 sequence (O14907 10-122, limits assumed, looked up): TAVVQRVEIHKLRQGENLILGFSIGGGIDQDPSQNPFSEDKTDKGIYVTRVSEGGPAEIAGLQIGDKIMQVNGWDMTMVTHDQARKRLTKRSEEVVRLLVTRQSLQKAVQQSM


target: T1, ARHGAP21, Q5T5U3; experiment: holdup assay; design: key: below the threshold = too weak to quantify, mostly under pKd 3.1 to 4; conditions: plain residues with an end cap or a label only (N-terminal biotin on a linker: ado-ado)

Row | pKd | Binder
1 | below the threshold | AEASVACSLC [PTGIR, P43119]
2 | 3.91 | LKDDELKTKL [SLCO1A2, P46721]

target: T2, DFNB31_2, Q9P202; experiment: holdup assay; design: key: below the threshold = too weak to quantify, mostly under pKd 3.1 to 4; conditions: plain residues with an end cap or a label only (N-terminal biotin on a linker: ado-ado)

Row | pKd | Binder
3 | below the threshold | AEASVACSLC [PTGIR, P43119]
4 | below the threshold | LKDDELKTKL [SLCO1A2, P46721]

target: T3, DFNB31_3, Q9P202; experiment: holdup assay; design: key: below the threshold = too weak to quantify, mostly under pKd 3.1 to 4; conditions: plain residues with an end cap or a label only (N-terminal biotin on a linker: ado-ado)

Row | pKd | Binder
5 | 3.75 | AEASVACSLC [PTGIR, P43119]
6 | below the threshold | LKDDELKTKL [SLCO1A2, P46721]

target: T4, DLG3_2, Q92796; experiment: holdup assay; design: key: below the threshold = too weak to quantify, mostly under pKd 3.1 to 4; conditions: plain residues with an end cap or a label only (N-terminal biotin on a linker: ado-ado)

Row | pKd | Binder
7 | 3.69 | AEASVACSLC [PTGIR, P43119]
8 | below the threshold | LKDDELKTKL [SLCO1A2, P46721]

target: FRMPD3, Q5JV73; experiment: holdup assay; design: key: below the threshold = too weak to quantify, mostly under pKd 3.1 to 4; conditions: plain residues with an end cap or a label only (N-terminal biotin on a linker: ado-ado)
Sequence (Q5JV73 12-100): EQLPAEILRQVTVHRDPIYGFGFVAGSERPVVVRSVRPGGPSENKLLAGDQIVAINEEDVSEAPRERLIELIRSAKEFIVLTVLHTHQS

Row | pKd | Binder
9 | below the threshold | AEASVACSLC [PTGIR, P43119]
10 | below the threshold | LKDDELKTKL [SLCO1A2, P46721]

target: T5, GRIP1_4, Q9Y3R0; experiment: holdup assay; design: key: below the threshold = too weak to quantify, mostly under pKd 3.1 to 4; conditions: plain residues with an end cap or a label only (N-terminal biotin on a linker: ado-ado)

Row | pKd | Binder
11 | below the threshold | AEASVACSLC [PTGIR, P43119]
12 | below the threshold | LKDDELKTKL [SLCO1A2, P46721]

target: GRIP2_6, Q9C0E4; experiment: holdup assay; design: key: below the threshold = too weak to quantify, mostly under pKd 3.1 to 4; conditions: plain residues with an end cap or a label only (N-terminal biotin on a linker: ado-ado)
Sequence (Q9C0E4 648-740): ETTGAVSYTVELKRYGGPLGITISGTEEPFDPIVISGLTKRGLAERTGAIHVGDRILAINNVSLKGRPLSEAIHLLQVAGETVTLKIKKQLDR

Row | pKd | Binder
13 | below the threshold | AEASVACSLC [PTGIR, P43119]
14 | below the threshold | LKDDELKTKL [SLCO1A2, P46721]

target: HTRA1, Q92743; experiment: holdup assay; design: key: below the threshold = too weak to quantify, mostly under pKd 3.1 to 4; conditions: plain residues with an end cap or a label only (N-terminal biotin on a linker: ado-ado)
Sequence (Q92743 360-477): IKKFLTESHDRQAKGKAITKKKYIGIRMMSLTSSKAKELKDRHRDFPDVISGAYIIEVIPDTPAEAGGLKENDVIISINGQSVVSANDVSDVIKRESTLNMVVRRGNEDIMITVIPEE

Row | pKd | Binder
15 | 3.93 | AEASVACSLC [PTGIR, P43119]
16 | below the threshold | LKDDELKTKL [SLCO1A2, P46721]

target: IL16_1, Q14005; experiment: holdup assay; design: key: below the threshold = too weak to quantify, mostly under pKd 3.1 to 4; conditions: plain residues with an end cap or a label only (N-terminal biotin on a linker: ado-ado)
Sequence (Q14005 210-306): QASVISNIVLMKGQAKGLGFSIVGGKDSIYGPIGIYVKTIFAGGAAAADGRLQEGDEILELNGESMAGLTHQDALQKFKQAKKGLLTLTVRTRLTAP

Row | pKd | Binder
17 | below the threshold | AEASVACSLC [PTGIR, P43119]
18 | below the threshold | LKDDELKTKL [SLCO1A2, P46721]

target: Inadl_3, Q8NI35; experiment: holdup assay; design: key: below the threshold = too weak to quantify, mostly under pKd 3.1 to 4; conditions: plain residues with an end cap or a label only (N-terminal biotin on a linker: ado-ado)
Sequence (Q8NI35 359-469): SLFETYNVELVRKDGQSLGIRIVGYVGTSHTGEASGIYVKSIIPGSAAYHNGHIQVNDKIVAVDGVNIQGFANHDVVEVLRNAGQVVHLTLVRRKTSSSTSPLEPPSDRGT

Row | pKd | Binder
19 | below the threshold | AEASVACSLC [PTGIR, P43119]
20 | below the threshold | LKDDELKTKL [SLCO1A2, P46721]

target: Inadl_4, Q8NI35; experiment: holdup assay; design: key: below the threshold = too weak to quantify, mostly under pKd 3.1 to 4; conditions: plain residues with an end cap or a label only (N-terminal biotin on a linker: ado-ado)
Sequence (Q8NI35 547-651): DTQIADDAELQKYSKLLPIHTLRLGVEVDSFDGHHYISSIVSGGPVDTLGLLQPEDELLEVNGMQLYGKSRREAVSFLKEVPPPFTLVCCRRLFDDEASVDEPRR

Row | pKd | Binder
21 | below the threshold | AEASVACSLC [PTGIR, P43119]
22 | below the threshold | LKDDELKTKL [SLCO1A2, P46721]

target: LIMK2, P53671; experiment: holdup assay; design: key: below the threshold = too weak to quantify, mostly under pKd 3.1 to 4; conditions: plain residues with an end cap or a label only (N-terminal biotin on a linker: ado-ado)
Sequence (P53671 143-248): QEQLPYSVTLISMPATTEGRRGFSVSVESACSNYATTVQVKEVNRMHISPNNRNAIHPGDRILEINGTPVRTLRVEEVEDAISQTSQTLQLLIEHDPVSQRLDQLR

Row | pKd | Binder
23 | below the threshold | AEASVACSLC [PTGIR, P43119]
24 | below the threshold | LKDDELKTKL [SLCO1A2, P46721]

target: MAGI2_2, Q86UL8; experiment: holdup assay; design: key: below the threshold = too weak to quantify, mostly under pKd 3.1 to 4; conditions: plain residues with an end cap or a label only (N-terminal biotin on a linker: ado-ado)
Sequence (Q86UL8 410-522): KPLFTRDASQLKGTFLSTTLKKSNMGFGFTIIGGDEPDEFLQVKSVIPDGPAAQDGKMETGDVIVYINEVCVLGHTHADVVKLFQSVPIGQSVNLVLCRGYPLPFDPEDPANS

Row | pKd | Binder
25 | below the threshold | AEASVACSLC [PTGIR, P43119]
26 | below the threshold | LKDDELKTKL [SLCO1A2, P46721]

target: MAGI3_2, Q5TCQ9; experiment: holdup assay; design: key: below the threshold = too weak to quantify, mostly under pKd 3.1 to 4; conditions: plain residues with an end cap or a label only (N-terminal biotin on a linker: ado-ado)
Sequence (Q5TCQ9 398-503): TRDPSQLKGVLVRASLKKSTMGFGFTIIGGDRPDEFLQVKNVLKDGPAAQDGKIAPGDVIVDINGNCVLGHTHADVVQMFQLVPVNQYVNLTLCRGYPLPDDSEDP

Row | pKd | Binder
27 | below the threshold | AEASVACSLC [PTGIR, P43119]
28 | below the threshold | LKDDELKTKL [SLCO1A2, P46721]

target: T6, MPDZ_10, O75970; experiment: holdup assay; design: key: below the threshold = too weak to quantify, mostly under pKd 3.1 to 4; conditions: plain residues with an end cap or a label only (N-terminal biotin on a linker: ado-ado)

Row | pKd | Binder
29 | 3.47 | AEASVACSLC [PTGIR, P43119]
30 | below the threshold | LKDDELKTKL [SLCO1A2, P46721]

target: T7, MPDZ_12, O75970; experiment: holdup assay; design: key: below the threshold = too weak to quantify, mostly under pKd 3.1 to 4; conditions: plain residues with an end cap or a label only (N-terminal biotin on a linker: ado-ado)

Row | pKd | Binder
31 | 3.48 | AEASVACSLC [PTGIR, P43119]
32 | below the threshold | LKDDELKTKL [SLCO1A2, P46721]

target: T8, MPDZ_5, O75970; experiment: holdup assay; design: key: below the threshold = too weak to quantify, mostly under pKd 3.1 to 4; conditions: plain residues with an end cap or a label only (N-terminal biotin on a linker: ado-ado)

Row | pKd | Binder
33 | below the threshold | AEASVACSLC [PTGIR, P43119]
34 | below the threshold | LKDDELKTKL [SLCO1A2, P46721]

target: T9, MPP7, Q5T2T1; experiment: holdup assay; design: key: below the threshold = too weak to quantify, mostly under pKd 3.1 to 4; conditions: plain residues with an end cap or a label only (N-terminal biotin on a linker: ado-ado)

Row | pKd | Binder
35 | below the threshold | AEASVACSLC [PTGIR, P43119]
36 | below the threshold | LKDDELKTKL [SLCO1A2, P46721]

target: PDLIM1, O00151; experiment: holdup assay; design: key: below the threshold = too weak to quantify, mostly under pKd 3.1 to 4; conditions: plain residues with an end cap or a label only (N-terminal biotin on a linker: ado-ado)
Sequence (O00151 1-87): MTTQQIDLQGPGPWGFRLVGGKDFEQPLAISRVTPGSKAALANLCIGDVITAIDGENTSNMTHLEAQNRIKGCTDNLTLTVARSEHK

Row | pKd | Binder
37 | below the threshold | AEASVACSLC [PTGIR, P43119]
38 | below the threshold | LKDDELKTKL [SLCO1A2, P46721]

target: T10, PDZD2_2, O15018; experiment: holdup assay; design: key: below the threshold = too weak to quantify, mostly under pKd 3.1 to 4; conditions: plain residues with an end cap or a label only (N-terminal biotin on a linker: ado-ado)

Row | pKd | Binder
39 | 4.29 | AEASVACSLC [PTGIR, P43119]
40 | below the threshold | LKDDELKTKL [SLCO1A2, P46721]

target: T11, PDZRN3_1, Q9UPQ7; experiment: holdup assay; design: key: below the threshold = too weak to quantify, mostly under pKd 3.1 to 4; conditions: plain residues with an end cap or a label only (N-terminal biotin on a linker: ado-ado)

Row | pKd | Binder
41 | below the threshold | AEASVACSLC [PTGIR, P43119]
42 | below the threshold | LKDDELKTKL [SLCO1A2, P46721]

target: T12, SNTA1, Q13424; experiment: holdup assay; design: key: below the threshold = too weak to quantify, mostly under pKd 3.1 to 4; conditions: plain residues with an end cap or a label only (N-terminal biotin on a linker: ado-ado)

Row | pKd | Binder
43 | below the threshold | AEASVACSLC [PTGIR, P43119]
44 | below the threshold | LKDDELKTKL [SLCO1A2, P46721]

target: TJP1_2, Q07157; experiment: holdup assay; design: key: below the threshold = too weak to quantify, mostly under pKd 3.1 to 4; conditions: plain residues with an end cap or a label only (N-terminal biotin on a linker: ado-ado)
Sequence (Q07157 181-274): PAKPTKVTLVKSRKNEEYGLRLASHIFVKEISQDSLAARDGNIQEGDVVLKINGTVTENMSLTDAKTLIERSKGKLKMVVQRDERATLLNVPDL

Row | pKd | Binder
45 | below the threshold | AEASVACSLC [PTGIR, P43119]
46 | below the threshold | LKDDELKTKL [SLCO1A2, P46721]

target: T13, TX1BP3, O14907; experiment: holdup assay; design: key: below the threshold = too weak to quantify, mostly under pKd 3.1 to 4; conditions: plain residues with an end cap or a label only (N-terminal biotin on a linker: ado-ado)

Row | pKd | Binder
47 | below the threshold | AEASVACSLC [PTGIR, P43119]
48 | below the threshold | LKDDELKTKL [SLCO1A2, P46721]
